Assay results reported in US20250320312A1 (OXITOPE PHARMA B V, published 2025).

Key:
Test in all cases: scFv ELISA
BSA = BSA (UniProt P02769)
[1] = target: Peptide 1: Biotin-…-[Tyr(PC)]-acid
[2] = target: Peptide 5: Biotin-…-[Tyr(PC)]-acid
[3] = target: T1, Peptide 4: Biotin-AGGGGSGGGGSGGGGSAAA-Tyr-acid (N-terminal biotin; C-terminal acid)
T1 construct: Control peptide without PC
T1 peptide: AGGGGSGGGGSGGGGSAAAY
In short: (§1)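 Bound scFv was read as OD450 after HRP–anti-V5 detection, TMB development and HCl stop. PPE with BSA was incubated 1 h at RT on BSA-blocked wells coated overnight at 4° C. with peptide, or on streptavidin wells loaded 1 h with biotinylated PC-peptides at 1 μg/mL.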

[4] = target: T2, Peptide 8: Biotin-AEAAAKEAAAKEAAAKEAAAKAAA-Tyr-acid (N-terminal biotin; C-terminal acid)
T2 construct: Control peptide without PC
T2 peptide: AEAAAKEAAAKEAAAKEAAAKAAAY
In short: as §1

Sequence of BSA (P02769 25-607 limits assumed): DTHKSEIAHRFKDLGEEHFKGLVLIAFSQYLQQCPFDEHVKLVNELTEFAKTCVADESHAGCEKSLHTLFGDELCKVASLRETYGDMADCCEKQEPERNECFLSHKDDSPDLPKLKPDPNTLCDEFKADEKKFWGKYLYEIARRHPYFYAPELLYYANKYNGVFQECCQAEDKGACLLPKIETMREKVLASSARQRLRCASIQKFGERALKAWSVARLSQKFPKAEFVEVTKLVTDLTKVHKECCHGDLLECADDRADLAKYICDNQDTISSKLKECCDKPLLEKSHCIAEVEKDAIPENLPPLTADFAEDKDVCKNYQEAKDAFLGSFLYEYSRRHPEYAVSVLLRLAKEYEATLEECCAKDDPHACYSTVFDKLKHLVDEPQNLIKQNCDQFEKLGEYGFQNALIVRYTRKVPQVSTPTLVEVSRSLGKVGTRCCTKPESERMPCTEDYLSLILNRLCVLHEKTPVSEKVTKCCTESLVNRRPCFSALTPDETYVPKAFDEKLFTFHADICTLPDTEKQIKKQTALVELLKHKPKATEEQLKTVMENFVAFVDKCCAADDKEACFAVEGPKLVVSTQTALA

| Binder | OD450 (BSA) | OD450 [1] | OD450 [2] | OD450 [3] | OD450 [4] |
| --- | --- | --- | --- | --- | --- |
| PcOxP_DB04_B07 (scFv, V domains shown, scFv in periplasmic extract) VH: EVQLLESGGGLVQPGGSLRLSCAASGPTFSDFYMEWVRQAPGKGLEWVAASRNKANGYTTEYADSVKGRFTISRDNSKNTLYLQMNSLRAEDTAVYYCARDYYGSSYWYFDVWGQGTLVTVSS VL: DIVMTQSPDSLAVSLGERATINCTASESLYSSKHKVHYLAWYQQKPGQPPKLLIYGASNRYIGVPDRFSGSGSGTDFTLTISSLQAEDVAVYYCAQFYSYPLTFGGGTKVEIK | 0.09 OD450 | 0.93 OD450 | 1.33 OD450 | 0.06 OD450 | 0.05 OD450 |
| PcOxP_DB04_C11 (scFv, V domains shown, scFv in periplasmic extract) VH: EVQLLESGGGLVQPGGSLRLSCAASGFTFSDYYMEWVRQAPGKGLEWVAASRNKANDYTTEYADSVKGRFTISRDNSKNTLYLQMNSLRAEDTAVYYCARDYYGSSYWYFDVWGQGTLVTVSS VL: DIVMTQSPDSLAVSLGERATINCTASESLYSSKHKVHYLAWYQQKPGQPPKLLIYGASHRQIGVPDRFSGSGSGTDFTLTISSLQAEDVAVYYCAQFYSYPLTFGGGTKVEIK | 0.07 OD450 | 0.81 OD450 | 1.34 OD450 | 0.05 OD450 | 0.04 OD450 |
| PcOxP_DB04_B10 (scFv, V domains shown, scFv in periplasmic extract) VH: EVQLLESGGGLVQPGGSLRLSCAASGFTDSDFYMEWVRQAPGKGLEWVAASRNKANGYTTEYADSVKGRFTISRDNSKNTLYLQMNSLRAEDTAVYYCARDYYGSSYWYFDVWGQGTLVTVSS VL: DIVMTQSPDSLAVSLGERATINCTASESLYSSKHKVHYLAWYQQKPGQPPKLLIYGASNRPIGVPDRFSGSGSGTDFTLTISSLQAEDVAVYYCGQFYSYPLTFGGGTKVEIK | 0.06 OD450 | 1.05 OD450 | 1.56 OD450 | 0.05 OD450 | 0.04 OD450 |
| PcOxP_DB04_D05 (scFv, V domains shown, scFv in periplasmic extract) VH: EVQLLESGGGLVQPGGSLRLSCAASGFTFSDYYMEWVRQAPGKGLEWVAASRNVANDYTTEYADSVKGRFTISRDNSKNTLYLQMNSLRAEDTAVYYCARDYYGSSYWYFDVWGQGTLVTVSS VL: DIVMTQSPDSLAVSLGERATINCTASTSLYSSKHKVHYLAWYQQKPGQPPKLLIYGASNRYIGVPDRFSGSGSGTDFTLTISSLQAEDVAVYYCAQFYSYPLTFGGGTKVEIK | 0.08 OD450 | 0.87 OD450 | 1.27 OD450 | 0.05 OD450 | 0.06 OD450 |
| PcOxP_DB04_B11 (scFv, V domains shown, scFv in periplasmic extract) VH: EVQLLESGGGLVQPGGSLRLSCAASGDTFSDFYMEWVRQAPGKGLEWVAASRWKANDYTTEYADSVKGRFTISRDNSKNTLYLQMNSLRAEDTAVYYCARDYYGSSYWYFDVWGQGTLVTVSS VL: DIVMTQSPDSLAVSLGERATINCTASESLYSSKHKVHYLAWYQQKPGQPPKLLIYGASNRYIGVPDRFSGSGSGTDFTLTISSLQAEDVAVYYCAQFYSYPLTFGGGTKVEIK | 0.08 OD450 | 0.26 OD450 | 0.31 OD450 | 0.05 OD450 | 0.05 OD450 |
| PcOxP_DB04_B12 (scFv, V domains shown, scFv in periplasmic extract) VH: EVQLLESGGGLVQPGGSLRLSCAASGFTFSDYYMEWVRQAPGKGLEWVAASRNKANDYTTEYADSVKGRFTISRDNSKNTLYLQMNSLRAEDTAVYYCARDYYGSSYWYFDVWGQGTLVTVSS VL: DIVMTQSPDSLAVSLGERATINCTASESLYSSKHKVHYLAWYQQKPGQPPKLLIYGASNRYIGVPDRFSGSGSGTDFTLTISSLQAEDVAVYYCAAFYSYPLTFGGGTKVEIK | 0.09 OD450 | 0.13 OD450 | 0.34 OD450 | 0.04 OD450 | 0.04 OD450 |
| PcOxP_DB04_E08 (scFv, V domains shown, scFv in periplasmic extract) VH: EVQLLESGGGLVQPGGSLRLSCAASGFTSSDFYLEWVRQAPGKGLEWVAASRNKWNDYTTEYADSVKGRFTISRDNSKNTLYLQMNSLRAEDTAVYYCARDYYGSSYWYFDVWGQGTLVTVSS VL: DIVMTQSPDSLAVSLGERATINCTASESLYSSKHKVHYLAWYQQKPGQPPKLLIYGVSNRYIGVPDRFSGSGSGTDFTLTISSLQAEDVAVYYCAQFYSYPLTFGGGTKVEIK | 0.09 OD450 | 1.39 OD450 | 2.01 OD450 | 0.06 OD450 | 0.05 OD450 |
| PcOxP_DB04_D07 (scFv, V domains shown, scFv in periplasmic extract) VH: EVQLLESGGGLVQPGGSLRLSCAASGFTFSDYYMEWVRQAPGKGLEWVAASRWKANDYTTEYADSVKGRFTISRDNSKNTLYLQMNSLRAEDTAVYYCARDYYGSSYWYFDVWGQGTLVTVSS VL: DIVMTQSPDSLAVSLGERATINCTASESLYSSKHKVHYLAWYQQKPGQPPKLLIYGASNRYIGVPDRFSGSGSGTDFTLTISSLQAEDVAVYYCAQFYTYPLTFGGGTKVEIK | 0.08 OD450 | 1.02 OD450 | 1.05 OD450 | 0.05 OD450 | 0.05 OD450 |
| PcOxP_DB04_C10 (scFv, V domains shown, scFv in periplasmic extract) VH: EVQLLESGGGLVQPGGSLRLSCAASGFTFSDGYMEWVRQAPGKGLEWVAAIRNKANDYTTEYADSVKGRFTISRDNSKNTLYLQMNSLRAEDTAVYYCARDYYGSHYWYFDVWGQGTLVTVSS VL: DIVMTQSPDSLAVSLGERATINCTASESLYSSKHKVHYLAWYQQKPGQPPKLLIYGASNRYIGVPDRFSGSGSGTDFTLTISSLQAEDVAVYYCAQFYSYPLTFGGGTKVEIK | 0.08 OD450 | 0.54 OD450 | 1.03 OD450 | 0.06 OD450 | 0.05 OD450 |
| PcOxP_DB04_D12 (scFv, V domains shown, scFv in periplasmic extract) VH: EVQLLESGGGLVQPGGSLRLSCAASGFTFSDQYMEWVRQAPGKGLEWVAASRNKANDWTTEYADSVKGRFTISRDNSKNTLYLQMNSLRAEDTAVYYCARDYYGSSYWYFDVWGQGTLVTVSS VL: DIVMTQSPDSLAVSLGERATINCTASESLYSSKHKVHYLAWYQQKPGQPPKLLIYGASNRYIGVPDRFSGSGSGTDFTLTISSLQAEDVAVYYCAQFYSYPLTFGGGTKVEIK | 0.08 OD450 | 0.64 OD450 | 1.03 OD450 | 0.06 OD450 | 0.05 OD450 |
| PcOxP_DB04_C09 (scFv, V domains shown, scFv in periplasmic extract) VH: EVQLLESGGGLVQPGGSLRLSCAASGFTFSSYYMEWVRQAPGKGLEWVAASRNKANDYTTEYADSVKGRFTISRDNSKNTLYLQMNSLRAEDTAVYYCARDYYLSSYWYFDVWGQGTLVTVSS VL: DIVMTQSPDSLAVSLGERATINCTASESLYSPKHKVHYLAWYQQKPGQPPKLLIYGAENRYIGVPDRFSGSGSGTDFTLTISSLQAEDVAVYYCAQFYSYPLTFGGGTKVEIK | 0.11 OD450 | 0.55 OD450 | 1.21 OD450 | 0.07 OD450 | 0.06 OD450 |
| PcOxP_DB04_D01 (scFv, V domains shown, scFv in periplasmic extract) VH: EVQLLESGGGLVQPGGSLRLSCAASGFTFSDYYMEWVRQAPGKGLEWVAASRNKGNDYTTAYADSVKGRFTISRDNSKNTLYLQMNSLRAEDTAVYYCARDYYGSSYWYFDVWGQGTLVTVSS VL: DIVMTQSPDSLAVSLGERATINCTASESLYSSKHKVHYLAWYQQKPGQPPKLLIYGASQRYIGVPDRFSGSGSGTDFTLTISSLQAEDVAVYYCAQFYSYPLTFGGGTKVEIK | 0.07 OD450 | 1.23 OD450 | 1.66 OD450 | 0.06 OD450 | 0.06 OD450 |
| PcOxP_DB04_D10 (scFv, V domains shown, scFv in periplasmic extract) VH: EVQLLESGGGLVQPGGSLRLSCAASGFTGSDFYMEWVRQAPGKGLEWVAASRWKANDYTTEYADSVKGRFTISRDNSKNTLYLQMNSLRAEDTAVYYCARDYYGSSYWYFDVWGQGTLVTVSS VL: DIVMTQSPDSLAVSLGERATINCTASESLYSTKHKVHYLAWYQQKPGQPPKLLIYGASHRYIGVPDRFSGSGSGTDFTLTISSLQAEDVAVYYCAQFYQYPLTFGGGTKVEIK | 0.07 OD450 | 1.14 OD450 | 1.35 OD450 | 0.05 OD450 | 0.05 OD450 |
| PcOxP_DB04_E05 (scFv, V domains shown, scFv in periplasmic extract) VH: EVQLLESGGGLVQPGGSLRLSCAASGNTFSDFYMEWVRQAPGKGLEWVAASRNKANYYTTEYADSVKGRFTISRDNSKNTLYLQMNSLRAEDTAVYYCARDYYGSSYWYFDVWGQGTLVTVSS VL: DIVMTQSPDSLAVSLGERATINCTASESLYSSKHKVHYLAWYQQKPGQPPKLLIYGASNRYIGVPDRFSGSGSGTDFTLTISSLQAEDVAVYYCAQFYSYPLTFGGGTKVEIK | 0.09 OD450 | 0.67 OD450 | 1.03 OD450 | 0.06 OD450 | 0.05 OD450 |
| PcOxP_DB04_E12 (scFv, V domains shown, scFv in periplasmic extract) VH: EVQLLESGGGLVQPGGSLRLSCAASGFTFSDFYMEWVRQAPGKGLEWVAASRNKANDYTTEYADSVKGRFTISRDNSKNTLYLQMNSLRAEDTAVYYCARDYYGSSYWYFDVWGQGTLVTVSS VL: DIVMTQSPDSLAVSLGERATINCTASESLYSSKHKVHYLAWYQQKPGQPPKLLIYGASNRVIGVPDRFSGSGSGTDFTLTISSLQAEDVAVYYCAQFYIYPLTFGGGTKVEIK | 0.07 OD450 | 1.03 OD450 | 1.39 OD450 | 0.05 OD450 | 0.05 OD450 |
| PcOxP_DB04_E06 (scFv, V domains shown, scFv in periplasmic extract) VH: EVQLLESGGGLVQPGGSLRLSCAASGFTGSDFYMEWVRQAPGKGLEWVAASRNKANDYTTEYADSVKGRFTISRDNSKNTLYLQMNSLRAEDTAVYYCARDYYGSPYWYFDVWGQGTLVTVSS VL: DIVMTQSPDSLAVSLGERATINCTASESLYSSKHKVHYLAWYQQKPGQPPKLLIYGASNRYIGVPDRFSGSGSGTDFTLTISSLQAEDVAVYYCAQFYSYPLTFGGGTKVEIK | 0.07 OD450 | 1.04 OD450 | 1.59 OD450 | 0.04 OD450 | 0.05 OD450 |
| PcOxP_DB04_D09 (scFv, V domains shown, scFv in periplasmic extract) VH: EVQLLESGGGLVQPGGSLRLSCAASGFTDSDFYMEWVRQAPGKGLEWVAASRNKANDYTTEYADSVKGRFTISRDNSKNTLYLQMNSLRAEDTAVYYCARDYYGSSYWYFDVWGQGTLVTVSS VL: DIVMTQSPDSLAVSLGERATINCKSSESLYSSKNKVHYLAWYQQKPGQPPKLLIYGASNRYSGVPDRFSGSGSGTDFTLTISSLQAEDVAVYYCAQFYSYPLTFGGGTKVEIK | 0.06 OD450 | 0.41 OD450 | 0.83 OD450 | 0.05 OD450 | 0.08 OD450 |
